In one test the target is CD20 (Homo sapiens) (UniProt P11836). The following applies: cited from earlier work.
The target of the next test is T1, CD20 (Homo sapiens, UniProt P11836).
T1 chain: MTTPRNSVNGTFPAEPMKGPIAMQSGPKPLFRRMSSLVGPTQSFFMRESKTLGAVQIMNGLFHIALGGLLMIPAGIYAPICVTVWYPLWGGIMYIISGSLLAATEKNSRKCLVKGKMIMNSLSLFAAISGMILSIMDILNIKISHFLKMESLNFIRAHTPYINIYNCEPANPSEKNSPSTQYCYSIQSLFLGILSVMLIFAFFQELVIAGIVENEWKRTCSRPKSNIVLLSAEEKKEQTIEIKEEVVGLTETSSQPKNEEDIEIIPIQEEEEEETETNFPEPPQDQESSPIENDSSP

Drawing on publication PMC6713228 (2018), this text covers Kd for 2 molecules.

For orientation: Kd means the constant that tells how readily two partners part at equilibrium. Regarding rituximab, the Kd in the test with CD20 (Homo sapiens) is 4.96 nM.

B1: rituximab (antibody, V domains shown)
VH: QVQLQQPGAELVKPGASVKMSCKASGYTFTSYNMHWVKQTPGRGLEWIGAIYPGNGDTSYNQKFKGKATLTADKSSSTAYMQLSSLTSEDSAVYYCARSTYYGGDWYFNVWGAGTTVTVSA
VL: QIVLSQSPAILSASPGEKVTMTCRASSSVSYIHWFQQKPGSSPKPWIYATSNLASGVPVRFSGSGSGTSYSLTISRVEAEDAATYYCQQWTSNPPTFGGGTKLEIK
modifications: FITC-labeled rituximab
In turn, B1 showed a Kd with CD20 of 4.82 nM.
